The assay has as its system E. coli strain BL21 (DE3). The assay can be described thus: Antimicrobial activity: dose-dependent inhibition of E. coli growth (standard growth inhibition assay). Type of assay: cell-based. As for the experimental part:
The antimicrobial activity of the cleaved peptides (same samples from Examples 5 and 6) was determined by measuring the dose-dependent inhibition of E. coli growth. The samples were tested for their ability to inhibit the growth of an overnight culture inoculated with E. coli strain BL21 (DE3). AMP samples were diluted serially into water in 96 well plates. Overnight cultures of E. coli BL21 (DE3) cells were diluted 1:50 into LB broth and 250 μl aliquots were transferred into 96-well plates. Each plate was incubated at 37° C. for one hour and then 50 μl of diluted peptide (or water) were added to each well. Each plate was incubated overnight at 37° C. and then the culture density was determined by measuring the apparent absorbance at 600 nm using a Spectromax Plus plate reader.

B1: AB4: trimer comprising a leader segment, three AMPs each separated by a tripeptide linker, and a trailer segment (protein)
chain: MASMTGGQQMGRDPFAKKFAKKFKKFAKKFAKFAFAFGDPFAKKFAKKFKKFAKKFAKFAFAFGDPFAKKFAKKFKKFAKKFAKFAFAFGDPSRRSLRKSSRNLPRSLPSSHSRSVIRIRAPSTSLRPHSSTTTTTTEIRLLTKPERKLSWLLPPLSNN
modifications: Amino acid sequence of the AB4 trimer.
Take B1: the “antimicrobial activity of cleaved trimer” value (digested with formic acid at 60° C.) is “potent antimicrobial activity”.

B2: 4A dimer: dimer having two D2A21 antimicrobial peptides connected by the Gly-Asp/Pro cleavage sequence, with leader and His-tag trailer (protein)
chain: MASMTGGQQMGRDPFAKKFAKKFKKFAKKFAKFAFAFGDPFAKKFAKKFKKFAKKFAKFAFAFGDPNSSSVDKLAAALEHHHHHH
modifications: Amino acid sequence of the 4A dimer.
Take B2: the antimicrobial activity entry reads like this: (Ni-purified, dialyzed, uncleaved dimer) “no detectable antimicrobial activity”; (after 50% formic acid treatment, 70° C., 24 hours) “significant antimicrobial activity”; (water-treated (control), 70° C., 24 hours) “no activity”.
